Results published in the supplement of paper PMC12042874.
± gives the uncertainty stated by the source.

Experiment: amyloid nucleation score (Sup35N fusion, yeast selection) (log enrichment); library NNK2; higher = more nucleation; inactive = no reads after selection
Summary of the method: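 The nucleation score is the DiMSum log enrichment of output over input reads, centred on the mode score of non-aggregating sequences. Only sequences with 100 or more input reads were scored, using Illumina sequencing of input and output plasmid inserts. Psi-negative yeast expressing Sup35N fused to peptides of 20 random codons were induced 24 hours with 100 μM copper sulfate and grown 7 days at 30°C on medium lacking adenine and uracil.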

Substance	amyloid nucleation score
AVSIGLYFVQASP	9.658 ± 0.052
DVCGD	-0.566 ± 0.48
CHQVI	0.383 ± 0.74
KFFMPTYN	1.58 ± 0.17
AVSVAVLRHLEVRRKVWS	1.66 ± 0.15
VRIIETGRC	0.136 ± 0.39
LVVVKFTEVKALCFSVWGMG	1.05 ± 0.57
IFKQVTIYLYGGRSLLGSRR	-0.507 ± 0.54
TVASTYVLVTCHRAFDQS	3.46 ± 0.079
LEGFTRA	-0.909 ± 0.36
LQRRCLINKNTGTPRLSN	-0.358 ± 1
ITDGENSFAFLSNRDSS	inactive
KKSFGLLENIMVSDLFPNSS	inactive
QIMLAGLRSLDLTVDRTFNS	inactive
SYNRSKCNSTRLMLKSKTAH	1.51 ± 0.47
VFVRRVGPQLFDPRSSNGVD	0.951 ± 0.81
VIDHLRCIETSVWGVVVWRI	-0.148 ± 0.35
DCYRPYWKVFIPLVIFGA	-0.076 ± 0.55
LLPSLWV	-0.437 ± 0.63
NTCGMRSLGKTFRIVSSLGS	0.285 ± 0.43
YTVPSQNKWVENLMNWRGYR	-0.663 ± 0.23
KCLVSMVLMYAVTMIWDAPD	1.35 ± 0.3
DNGCELPFLFFMFASTVKWS	-0.78 ± 1.1
MIDLTLIFLFLVYSD	-0.827 ± 0.62
SLNILDCFTCGYMTSDISVA	-0.674 ± 0.32

Substance	amyloid nucleation score
ALFIEISPLTINLFTNAKSL	-1.06 ± 0.76
RYAYLFGPGRCWMFLSVFPY	4.2 ± 0.069
DKYNTVRLCP	0.987 ± 0.5
QRVSRYNLLRARPGKIAEHF	inactive
YFWSFYEVISFDCYHLIIFS	0.004 ± 0.18
FCSFSMFRLAS	0.606 ± 0.8
DRINSFLFRETVWQNNWVIS	-0.263 ± 0.79
ANRNRYNLHWDMG	0.946 ± 0.6
WARCHVLA	-0.292 ± 0.55
SDLGCLRYRTKGGAVGVDGV	0.653 ± 0.21
SSWLYGVYSSYMWMLF	-1.45 ± 1
SRAGECSSWGHIYGLCVDLR	-0.897 ± 0.55
NSLMSFWVSVV	0.208 ± 0.34
VSQVMLSK	0.626 ± 0.24
LTTSIL	-1.06 ± 0.39
WGCNSNELSCRLYVVNYSGW	-0.251 ± 0.56
FVDWVMCIVMYVRLR	-0.87 ± 0.41
VRATCWS	-0.418 ± 0.55
GGISKIFVWEVSIVHYSNIS	inactive
DFFVLVGYGKVK	0.595 ± 0.53
LVFFSLDFYYRGWHRDWIAG	-1.26 ± 0.64
HLGVGFLWSVRFIYMTFGFS	inactive
LAIVLRGNFTIVSTAIE	3.26 ± 0.1
FQHNVAIKRWRRLADSLYSV	0.723 ± 0.57
SLMKKTAGLFNVYVPSIGSS	0.378 ± 0.37

Substance	amyloid nucleation score
GFYIPRRAFS	-1.13 ± 0.25
SKAECLMH	-0.547 ± 1.1
LKAQRFWTNNLSLEANSHRK	-0.573 ± 1.1
MFAVLSLDRGYHKAR	-0.205 ± 0.55
FSTCVVSGSSLYCGGLTLVH	inactive
DTPCSYISCMCNTIL	9.453 ± 0.03
FIELMCWRSH	-0.315 ± 0.45
NIIACMYKLEDSGRQFSMLE	5.214 ± 0.046
ISCGVSLPIANCTMTHIARV	-0.23 ± 0.49
SWYLFGPDR	-0.433 ± 0.54
LWITTGNGGVPV	-0.144 ± 0.45
EGIVSMFVIRVYV	0.63 ± 0.46
YSGLSNLLGKMKRGSSLWVD	inactive
QWLKTVSLS	0.449 ± 0.8
VEFLPCLSIYSACFSLDGST	-1.37 ± 0.44
GHTPCPHNVVRTHVLSWHGL	7.021 ± 0.042
YRPAWMDWF	1.78 ± 0.16
AHLRITFSMSMNMQLFMVLR	0.587 ± 0.48
NSYWWFANK	2.54 ± 0.08
YNCLACARVKWKSVCGRMSC	0.388 ± 0.32
FTEFPNFNDMSDRVV	-0.92 ± 0.64
VLVLDR	3.46 ± 0.073
QVVEYN	-0.047 ± 0.33
QQVQNAVCGWESYCSQLNRR	-0.241 ± 0.48
CSNYFLSEELRHSVEVGSES	0.463 ± 0.18

Substance	amyloid nucleation score
LCCLMDFMITNLITFQRMTS	4.33 ± 0.11
RMVSYY	-0.474 ± 0.56
KRINCPKFSNGQYGLS	inactive
KHEIQVS	0.33 ± 0.56
SMSKYAISYKLVVRKKYRSG	1.83 ± 0.11
TLFSMVNSTLNGWWIMT	6.84 ± 0.061
NISDFVKLVSYWVSVRCDLR	-0.305 ± 1.1
VDLYQVWSSCPVFVLWGYSC	0.072 ± 0.79
MRGGLGV	0.492 ± 0.49
PNTSKGGDGYSTWGTSQASS	0.03 ± 0.46
GGLCYEQNFYRYKKRRVLEL	3.47 ± 0.12
ATQVMMGVAEYACLYNCTHM	8.223 ± 0.078
FDVSFILSL	-1.34 ± 1
SVVLCTAFVQPC	0.158 ± 0.45
FLINFAMIISIFRLSYHRPV	-0.599 ± 0.55
ADSVYAVRRKAV	0.356 ± 0.8
RRVNFMKVTFNLKVILFRWS	-1.52 ± 1.1
LARCGPKLW	3.43 ± 0.07
IRTLSFMIANSAL	-1.16 ± 1.1
AEAWGVFYHWHDT	-0.493 ± 0.53
LRMNYIAAVHSCAVLHHFNA	3.13 ± 0.073
TLMWESYMWS	-0.897 ± 0.63
KVELYYWVSTLSVCSLALYS	6.07 ± 0.084
FSMLF	-0.462 ± 0.56
KIIVHYIYRRIRLCDSNLKR	8.398 ± 0.046

Substance	amyloid nucleation score
VYRSRAVHATSLGSERFNTD	5.17 ± 0.1
DKTVIPLCFLHFNRT	-1.35 ± 0.78
QCKVQCKEWVYNVFAKLQDS	-0.927 ± 1.1
YGYIFISCENVRTQRSVIDG	inactive
RGEHRERCGDIGRYGMGRRA	1.27 ± 0.14
MQKRRDSKYEYLVFGCDVCM	-1.13 ± 1.1
NDPGYLTTYI	-0.418 ± 0.27
NVVFRFVVEYNLWWLSVPDY	-0.578 ± 1.1
FLFSIF	inactive
ILSLEDLSLVRYGAIDS	-0.483 ± 1.1
SSCLIG	0.28 ± 0.43
YMSYNYGTVLEFLELPDSHR	1.56 ± 0.11
VISGGFMF	4.63 ± 0.069
HSAMFLYTKHVSPPGSWRVL	1.6 ± 0.13
RILLLDLRYYCTTP	inactive
CVMTRRSTKCFSMSLLSIWL	6.496 ± 0.056
FHRPWTFLLLNLPTRGFFLR	inactive
MSWIGCYYYFNAQQHNSG	9.318 ± 0.052
NGDVTVMITF	5.463 ± 0.031
RIYRRNQWVPGGDYSKGINL	-0.892 ± 0.76
TLTPNNSTCTGVCFCLSYNQ	9.475 ± 0.059
LYMYKNAKVLVSHLYYWYNY	inactive
VGGRSGE	-0.159 ± 0.26
NCVWNWRHWFTVVNSF	1.95 ± 0.089
RRGHVL	1.82 ± 0.21

Substance	amyloid nucleation score
PTQVSDLDNLTDCPRGVLPC	-0.735 ± 0.48
STWCRMANYLITCFVTKSRV	-1.33 ± 1.1
RCNMLDRYPSVGRNPVLMVV	0.063 ± 1.1
FWLVL	-1.47 ± 0.73
IADIVQGSGVAT	-0.178 ± 0.26
WDCAWVLGLVAEGRLT	6.09 ± 0.039
SVMSRNGNYVIVLGQCNCYM	8.509 ± 0.022
NLVFCFDFQMSAPISGEMQY	4.87 ± 0.098
KYVSCNLLIGWYTLFSFYPF	-0.649 ± 0.4
KTNVMERCHFQRILCFGMW	inactive
RNGFAIRITANHYTQLVYDL	3.82 ± 0.094
NASTRSGNYQFARHGLGYRR	1.44 ± 0.17
GSQGFPRRFSPSMPM	0.886 ± 0.8
SCGYFITKKEH	-0.679 ± 0.3
VRNKMSGPLMFIIGLDLSCN	inactive
GWSMCRVSRLTMLVSVVFFC	0.377 ± 0.26
FKKAMHKPKSWAFSEKGRTN	-1.27 ± 0.61
RDSKFRMPLKWKAFFMGVER	1.17 ± 0.38
IGILSREGYWGGNRFLGYQL	-1.32 ± 0.62
VGIEEVIH	-0.249 ± 0.23
LYPRPPYSRWIIANHSNWGS	0.218 ± 0.8
KSYMARMWYMVRLMLTCLDY	0.741 ± 0.47
NYSDWRVSTEIRSMGRYRPH	0.069 ± 0.65
LSHLISFRLTTTSNFRFWDH	3.15 ± 0.093
RVSTNGFVSQPMRWYVIVDS	-0.142 ± 0.25

Substance	amyloid nucleation score
SVWGKD	0.073 ± 0.63
DNYITLIAMKGYKTAYSTVS	-0.116 ± 0.61
ALSSFIGVRNLQAQGHFTQI	0.638 ± 0.36
EVMEFSNDFSRIFFAFKGFV	-0.665 ± 0.78
NSAKKLRRPGATCPGQDGYT	0.864 ± 0.41
QHYLKPAMARQSLKGIFDQD	-0.595 ± 0.61
YQMADVPLNRMGHYPVYEGW	-0.845 ± 0.76
SLSGVV	inactive
MLARFSSHVPGTDVNPIGRQ	0.317 ± 0.5
VWLSFRVYLVMTSVLVILNC	1.13 ± 0.11
RVDLVDSSICADANLLG	1.17 ± 0.26
MFIMFIAVSFVGRMYGGHRH	-0.44 ± 0.26
LTGNAWSSMIYSNYNMGVYS	inactive
EYMAITSFQKLFPHWFLSTE	inactive
DMNEDVGLGNKFC	0.119 ± 0.54
FTCFFLVLRVKSLLMVSAVG	6.34 ± 0.079
RFNCHFIWNIRPEFRMNNDK	5.61 ± 0.057
LVFDRFDGNFNRSMSVAVRV	-0.211 ± 0.39
PVRSRWPFSSSLAAVTTYRV	1.26 ± 0.41
DRMLCWDLGVIKNVLRTRVL	-0.354 ± 0.55
VFIVL	1.65 ± 0.41
TFNVPKMESVRPPG	0.796 ± 0.52
GNNRAY	-0.117 ± 0.74
